This note sets out measurements from paper PMC7356358 (Biomolecules, 2020).

Where two headings read alike, the source gives them in different places.

Series [1] deals with PfHsp70-1. Description: Interaction of PfHsp40 with PfHsp70-1 by MP-SPR. Format: binding, Plasmodium falciparum.
For series [2], the system named is KPf. The following applies: MP-SPR, PfHsp40 over immobilized KPf, three runs. As to the method:
The analysis was conducted both in the absence and presence of 5 mM of ATP/ADP. The ligand and analyte pairs were swapped, and the data generated were analyzed after global fitting. Association was allowed for 2 min, and dissociation was monitored for 8 min. Data analysis was conducted using TraceDrawer software version 1.8 (Ridgeview Instruments).

The nature of series [3]: ATPase activity (released inorganic phosphate). The format is biochemical. The following applies: PfHsp40 preparation alone, non-ATPase control.
Description: Hsp70 proteins at final concentration of 0.4 μM were each incubated for 5 min in buffer HKMD (10 mM HEPES-KOH pH 7.5, 100 mM KCl, 2 mM MgCl2 and 0.5 mM DTT). The reaction was initiated by the addition of ATP at various concentrations (0–5 mM) and samples were analyzed every 30 min for 4 h.
The target in series [4] is DnaK (Escherichia coli, UniProt P0A6Y8). The note with it: MP-SPR, PfHsp40 over immobilized DnaK, three runs.
Chain of DnaK (P0A6Y8 whole entry): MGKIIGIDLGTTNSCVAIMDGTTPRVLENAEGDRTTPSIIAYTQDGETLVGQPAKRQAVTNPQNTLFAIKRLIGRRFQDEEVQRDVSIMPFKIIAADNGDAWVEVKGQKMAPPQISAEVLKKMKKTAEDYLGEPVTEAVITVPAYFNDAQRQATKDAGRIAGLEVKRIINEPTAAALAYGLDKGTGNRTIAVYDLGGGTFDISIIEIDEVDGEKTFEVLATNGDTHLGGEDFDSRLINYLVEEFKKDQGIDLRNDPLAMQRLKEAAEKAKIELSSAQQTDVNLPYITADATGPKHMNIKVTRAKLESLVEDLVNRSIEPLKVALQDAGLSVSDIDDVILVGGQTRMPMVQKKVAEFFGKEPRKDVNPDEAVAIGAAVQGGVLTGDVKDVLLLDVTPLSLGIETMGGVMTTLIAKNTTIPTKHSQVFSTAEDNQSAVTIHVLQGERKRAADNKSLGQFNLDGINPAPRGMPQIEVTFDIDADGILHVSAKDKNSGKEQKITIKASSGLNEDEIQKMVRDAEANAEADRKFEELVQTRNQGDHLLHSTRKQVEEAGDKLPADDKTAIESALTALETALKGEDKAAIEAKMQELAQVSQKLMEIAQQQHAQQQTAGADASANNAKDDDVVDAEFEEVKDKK

Chain of PfHsp70-1 (P11144 1-630 limits assumed): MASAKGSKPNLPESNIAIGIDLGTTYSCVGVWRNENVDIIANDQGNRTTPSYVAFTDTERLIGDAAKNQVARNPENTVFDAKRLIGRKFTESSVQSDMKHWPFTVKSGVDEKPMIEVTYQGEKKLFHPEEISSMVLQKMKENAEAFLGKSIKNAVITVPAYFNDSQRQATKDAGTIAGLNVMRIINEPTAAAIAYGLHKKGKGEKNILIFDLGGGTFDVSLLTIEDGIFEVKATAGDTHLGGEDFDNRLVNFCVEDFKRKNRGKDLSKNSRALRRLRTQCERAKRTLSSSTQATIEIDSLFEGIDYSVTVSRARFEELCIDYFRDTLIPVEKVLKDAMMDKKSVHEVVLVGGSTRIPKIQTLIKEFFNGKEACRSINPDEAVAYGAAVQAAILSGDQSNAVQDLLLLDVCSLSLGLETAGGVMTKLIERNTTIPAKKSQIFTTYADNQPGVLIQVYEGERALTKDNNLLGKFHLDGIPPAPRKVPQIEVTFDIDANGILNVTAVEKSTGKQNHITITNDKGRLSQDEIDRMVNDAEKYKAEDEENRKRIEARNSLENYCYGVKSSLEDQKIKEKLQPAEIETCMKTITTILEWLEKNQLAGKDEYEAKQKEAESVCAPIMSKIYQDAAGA
Chain of KPf (P11144 405-631 limits assumed): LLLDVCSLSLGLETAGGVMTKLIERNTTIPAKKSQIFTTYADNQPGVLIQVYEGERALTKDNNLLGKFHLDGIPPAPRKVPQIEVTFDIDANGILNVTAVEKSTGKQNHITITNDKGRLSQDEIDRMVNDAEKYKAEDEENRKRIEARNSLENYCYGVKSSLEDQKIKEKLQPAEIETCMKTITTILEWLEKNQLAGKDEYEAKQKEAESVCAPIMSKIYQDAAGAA

B1: PfHsp40: P. falciparum type I Hsp40 (PF3D7_1437900), co-chaperone of PfHsp70-1 (protein)
chain: MFFSSGFPFDSMGGQQARRKREVNNNKFYEVLNLKKNCTTDEVKKAYRKLAIIHHPDKGGDPEKFKEISRAYEVLSDEEKRKLYDEYGEEGLENGEQPADATDLFDFILNAGKGKKKRGEDIVSEVKVTLEQLYNGATKKLAISKDIICTNCEGHGGPKDAKVDCKQCNGRGTKTYMRYHSSVLHQTEVTCNTCRGKGKIFNEKDKCANCKGMCVLKTRKIIEVYIPKGAPNKHKIVFNGEADEKPNVITGNLVVILNEKQHPVFRREGIDLFMNYKISLYESLTGFVAEVTHLDERKILVNCTNSGFIRHGDIREVLDEGMPTYKDPFKKGNLYITFEVEYPMDLIITNENKEVLKILKKQNEVEKKYDLENSELEVVSCSPVDKEYIKVRVTKQQQQQQQEAYDDEDHQPEMEGGRVACAQQ
modifications: left off: His6, N-terminal, state not stated
With B1, the Ka is 1.53 (±0.03) × 10^3 Ms^−1 in series [1] (PfHsp40 over immobilized PfHsp70-1, + 5 mM ADP, three runs); 1.33 (±0.03) × 10^3 Ms^−1 in series [1] (PfHsp40 over immobilized PfHsp70-1, no nucleotide, three runs); 1.81 (±0.01) × 10^2 Ms^−1 in series [1] (analyte PfHsp40 0-2000 nM over immobilized PfHsp70-1, + 5 mM ATP, global fit, mean (SD) of three runs); 1.36 (±0.26) × 10^2 Ms^−1 in series [2] (+ 5 mM ADP); 1.72 (±0.02) × 10^2 Ms^−1 in series [2] (+ 5 mM ATP); 1.24 (±0.04) × 10^4 Ms^−1 in series [2] (no nucleotide). Besides, the Ka in series [4] (+ 5 mM ADP) is reported as 1.16 (±0.06) × 10^2 Ms^−1; in series [4] (+ 5 mM ATP) it was 1.22 (±0.02) × 10^2 Ms^−1; in series [4] (no nucleotide), 1.12 (±0.02) × 10^2 Ms^−1. In addition, the “independent basal ATPase activity” value in series [3] was “no detectable”.
